Assay [1] has as its target oligomer-enriched preparation of the Aβ1-42 peptide (Example 16). The experiment in a line: ELISA, fraction coated at 2.2 µM; assay 2; antibody dilution 1:4 (start 0.5 µg/ml).
The target of assay [2] is monomer-enriched preparation of the Aβ1-42 peptide (Example 16). The description is as above.
The target of assay [3] is oligomer-enriched preparation of the Aβ1-42 peptide (Example 16). In words: ELISA, fraction coated at 2.2 µM; assay 3; antibody dilution 1:4 (start 0.5 µg/ml). A general note: ELISA stands for enzyme-linked immunosorbent assay.
The target of assay [4] is monomer-enriched preparation of the Aβ1-42 peptide (Example 16). The description is as above.
Assay [5] has as its target oligomer-enriched preparation of the Aβ1-42 peptide (Example 16). In words: ELISA, fraction coated at 2.2 µM; antibody dilution 1:16 (start 0.5 µg/ml).
The target of assay [6] is monomer-enriched preparation of the Aβ1-42 peptide (Example 16). The assay is described as above.
The target in assay [7] is oligomer-enriched preparation of the Aβ1-42 peptide (Example 16). The experiment in a line: ELISA, fraction coated at 2.2 µM; assay 2; antibody dilution 1:2 (start 0.5 µg/ml).
For assay [8], the target named is monomer-enriched preparation of the Aβ1-42 peptide (Example 16). The description is as above.
The target in assay [9] is high molecular weight (HMW) proto-fibrillar (PF) oligomer enriched preparation of the Aβ1-42 peptide (Example 15) (human). The experiment in a line: ELISA, fraction coated at 2 µM; antibody 1 µg/ml.
Assay [10] deals with low molecular weight (LMW) monomeric preparation of the Aβ1-42 peptide (Example 15) (human). The experiment in a line: ELISA, fraction coated at 2 µM; antibody 1 µg/ml.
low molecular weight (LMW) monomeric preparation of the Aβ1-42 peptide (Example 15) (human), sequence (peptide, as listed by the source): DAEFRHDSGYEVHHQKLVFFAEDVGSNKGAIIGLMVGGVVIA

oligomer-enriched preparation of the Aβ1-42 peptide (Example 16), sequence (peptide, as listed by the source): as above
monomer-enriched preparation of the Aβ1-42 peptide (Example 16), sequence (peptide, as listed by the source): as above
high molecular weight (HMW) proto-fibrillar (PF) oligomer enriched preparation of the Aβ1-42 peptide (Example 15) (human), sequence (peptide, as listed by the source): as above

As for 6E10 control antibody, the O.D. (405 nm) was found to be 3.37 O.D in assay [1]; 3.29 O.D in [2]; 3.64 O.D in [3]; 3.52 O.D in assay [4]; 3.55 O.D in assay [7]; 3.48 O.D in assay [8]. The O.D. (405 nm) in assay [9] was found to be 2.55 O.D; in assay [10] it was 2.68 O.D. Also, the values for the O.D. (405 nm), mean of 3 assays in assay [5] and in assay [6] were 1.92 O.D and 1.98 O.D, respectively.

For the origin of these results see patent US20090017041A1.
